Laboratory results taken from the supplement of paper PMC9112550, “Optimization of the antimicrobial peptide Bac7 by deep mutational scanning” (BMC Biology, 2022).

Test system: Escherichia coli TOP10
Assay: shrunken log2 fold change of peptide-encoding DNA abundance (4.5 h post-induction vs induction); higher = less antimicrobial activity (less host growth inhibition)
Conditions: time post-induction: 4.5 h; library: site-saturation at positions 5, 18, 19, 20
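Further: peptides expressed intracellularly from a pBAD plasmid library in pooled LB shake-flask culture, induced with 0.3% L-arabinose, DNA abundance read by NGS, three biological replicates, DESeq2 with apeglm shrinkage.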

Sequence | shrunken log2 fold change
RRIRSRPPRLPRPRPRPNGYPRP | -0.12
RRIRMRPPRLPRPRPRPDIYPRP | 0.0832
RRIRRRPPRLPRPRPRPFMVPRP | -0.242
RRIRERPPRLPRPRPRPDCAPRP | 0.115
RRIRMRPPRLPRPRPRPGWFPRP | 1.16
RRIRPRPPRLPRPRPRPPWRPRP | 0.558
RRIRSRPPRLPRPRPRPTDYPRP | -0.66
RRIRNRPPRLPRPRPRPFGCPRP | -0.128
RRIRKRPPRLPRPRPRPECTPRP | 3.42
RRIRARPPRLPRPRPRPFHSPRP | -0.217
RRIRFRPPRLPRPRPRPWENPRP | -0.0884
RRIRWRPPRLPRPRPRPSHIPRP | -0.241
RRIRLRPPRLPRPRPRPPCKPRP | 0.15
RRIRNRPPRLPRPRPRPSGYPRP | 0.00359
RRIRPRPPRLPRPRPRPRHGPRP | 0.0491
RRIRHRPPRLPRPRPRPFVVPRP | -0.16
RRIRIRPPRLPRPRPRPYDNPRP | 0.0332
RRIRVRPPRLPRPRPRPGTVPRP | 0.421
RRIRNRPPRLPRPRPRPCFPPRP | -0.312
RRIRKRPPRLPRPRPRPELDPRP | 0.121
RRIRARPPRLPRPRPRPERSPRP | 0.264
RRIRARPPRLPRPRPRPEPLPRP | 0.284
RRIRIRPPRLPRPRPRPVDEPRP | -0.0203

Sequence | shrunken log2 fold change
RRIRNRPPRLPRPRPRPEWLPRP | 0.226
RRIRRRPPRLPRPRPRPMTVPRP | -0.238
RRIRHRPPRLPRPRPRPKWNPRP | -0.206
RRIRQRPPRLPRPRPRPRYEPRP | -0.349
RRIRCRPPRLPRPRPRPITWPRP | -0.189
RRIRRRPPRLPRPRPRPYRKPRP | 0.0779
RRIRYRPPRLPRPRPRPGLGPRP | -0.0488
RRIRPRPPRLPRPRPRPNWKPRP | -0.101
RRIRHRPPRLPRPRPRPCLTPRP | -0.0273
RRIRKRPPRLPRPRPRPIWPPRP | 0.345
RRIRSRPPRLPRPRPRPGMSPRP | -0.0403
RRIRCRPPRLPRPRPRPCNCPRP | -0.278
RRIRCRPPRLPRPRPRPDFWPRP | 0.0753
RRIRDRPPRLPRPRPRPGRDPRP | 0.193
RRIRRRPPRLPRPRPRPFCPPRP | -0.106
RRIRSRPPRLPRPRPRPRPTPRP | 0.391
RRIRFRPPRLPRPRPRPSMDPRP | -0.819
RRIRGRPPRLPRPRPRPALGPRP | 1.11
RRIRSRPPRLPRPRPRPTARPRP | 0.44
RRIRWRPPRLPRPRPRPTIHPRP | 0.13
RRIRERPPRLPRPRPRPGSAPRP | 0.151
RRIRVRPPRLPRPRPRPYRNPRP | -0.0374
RRIRIRPPRLPRPRPRPNFGPRP | -0.0272

Sequence | shrunken log2 fold change
RRIRARPPRLPRPRPRPGVIPRP | 0.0533
RRIRSRPPRLPRPRPRPGAYPRP | -0.0377
RRIRCRPPRLPRPRPRPRQTPRP | 0.781
RRIRKRPPRLPRPRPRPMNFPRP | 0.18
RRIRIRPPRLPRPRPRPPWLPRP | 0.412
RRIRPRPPRLPRPRPRPRLLPRP | 0.321
RRIRRRPPRLPRPRPRPRVYPRP | 0.335
RRIRIRPPRLPRPRPRPRGEPRP | 0.0673
RRIRDRPPRLPRPRPRPRMYPRP | -0.154
RRIRIRPPRLPRPRPRPNQMPRP | -0.173
RRIRYRPPRLPRPRPRPKCDPRP | -0.529
RRIRCRPPRLPRPRPRPAEMPRP | -0.0594
RRIRSRPPRLPRPRPRPYLPPRP | -0.552
RRIRIRPPRLPRPRPRPVMPPRP | -0.142
RRIRERPPRLPRPRPRPEEKPRP | -0.0137
RRIRNRPPRLPRPRPRPGINPRP | -0.253
RRIRERPPRLPRPRPRPPYNPRP | -0.728
RRIRKRPPRLPRPRPRPKLDPRP | 0.707
RRIRWRPPRLPRPRPRPDKQPRP | 0.0432
RRIRYRPPRLPRPRPRPEDAPRP | -0.0333
RRIRIRPPRLPRPRPRPEITPRP | -0.461
RRIRKRPPRLPRPRPRPHQRPRP | -0.0795
RRIRKRPPRLPRPRPRPTVAPRP | 0.814

Sequence | shrunken log2 fold change
RRIRCRPPRLPRPRPRPLDEPRP | 0.151
RRIRGRPPRLPRPRPRPTCCPRP | 1.2
RRIRTRPPRLPRPRPRPLLAPRP | 0.282
RRIRWRPPRLPRPRPRPQPKPRP | 0.294
RRIRIRPPRLPRPRPRPHYAPRP | -0.121
RRIRCRPPRLPRPRPRPEIEPRP | -0.00676
RRIRRRPPRLPRPRPRPNPCPRP | 0.0776
RRIRRRPPRLPRPRPRPAILPRP | -0.017
RRIRGRPPRLPRPRPRPKNIPRP | -0.101
RRIRERPPRLPRPRPRPHWFPRP | -0.128
RRIRCRPPRLPRPRPRPSPLPRP | 0.21
RRIRHRPPRLPRPRPRPANYPRP | -0.00316
RRIRIRPPRLPRPRPRPPCHPRP | -0.463
RRIRTRPPRLPRPRPRPAWAPRP | 1.53
RRIRHRPPRLPRPRPRPQKPPRP | -0.0624
RRIRFRPPRLPRPRPRPQLIPRP | -0.313
RRIRPRPPRLPRPRPRPTCAPRP | 0.268
RRIRNRPPRLPRPRPRPSKNPRP | -0.267
RRIRYRPPRLPRPRPRPDNPPRP | -0.877
RRIRARPPRLPRPRPRPPYWPRP | 0.376
RRIRNRPPRLPRPRPRPFNRPRP | -0.111
RRIRSRPPRLPRPRPRPHNRPRP | 0.0124
